Here are results for 1 molecule from publication PMC8563363 (Cell, 2021).

This assay concerns the target T1, SMC1 (human, UniProt Q14683 1-1233).
T1 sequence: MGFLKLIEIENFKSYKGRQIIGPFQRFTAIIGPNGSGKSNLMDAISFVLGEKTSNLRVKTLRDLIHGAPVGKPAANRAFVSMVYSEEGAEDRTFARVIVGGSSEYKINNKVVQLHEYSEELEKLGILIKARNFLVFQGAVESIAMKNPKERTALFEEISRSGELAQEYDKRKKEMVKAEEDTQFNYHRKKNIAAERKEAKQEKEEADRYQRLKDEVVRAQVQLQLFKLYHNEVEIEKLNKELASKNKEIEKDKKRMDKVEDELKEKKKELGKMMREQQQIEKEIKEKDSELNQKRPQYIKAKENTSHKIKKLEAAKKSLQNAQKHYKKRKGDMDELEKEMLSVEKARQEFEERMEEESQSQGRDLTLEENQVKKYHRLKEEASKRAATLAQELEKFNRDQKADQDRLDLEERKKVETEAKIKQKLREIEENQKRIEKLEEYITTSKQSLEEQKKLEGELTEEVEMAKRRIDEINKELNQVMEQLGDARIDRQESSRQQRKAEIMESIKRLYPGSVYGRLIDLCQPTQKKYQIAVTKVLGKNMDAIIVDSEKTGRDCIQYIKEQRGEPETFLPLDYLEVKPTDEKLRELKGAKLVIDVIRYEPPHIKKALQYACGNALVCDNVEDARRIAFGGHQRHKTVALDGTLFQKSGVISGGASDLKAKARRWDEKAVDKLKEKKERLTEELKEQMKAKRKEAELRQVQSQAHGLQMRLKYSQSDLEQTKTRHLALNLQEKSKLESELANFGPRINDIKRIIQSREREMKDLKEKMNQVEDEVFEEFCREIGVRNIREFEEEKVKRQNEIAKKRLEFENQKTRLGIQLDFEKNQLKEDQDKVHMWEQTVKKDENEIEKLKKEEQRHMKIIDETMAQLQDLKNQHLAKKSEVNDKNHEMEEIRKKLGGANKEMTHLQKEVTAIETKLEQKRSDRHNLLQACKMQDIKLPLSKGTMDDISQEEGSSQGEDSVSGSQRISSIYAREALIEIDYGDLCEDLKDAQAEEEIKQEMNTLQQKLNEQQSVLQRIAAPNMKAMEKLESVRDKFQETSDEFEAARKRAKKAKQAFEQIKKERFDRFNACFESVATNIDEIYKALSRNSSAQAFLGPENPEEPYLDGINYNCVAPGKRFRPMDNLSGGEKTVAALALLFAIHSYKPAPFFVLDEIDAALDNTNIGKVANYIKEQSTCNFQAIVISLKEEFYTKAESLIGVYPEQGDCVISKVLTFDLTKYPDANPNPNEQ
The assay is described as follows: mass photometry.

B1: SMC3 with a C-terminal Flag tag (natural protein)
chain: MYIKQVIIQGFRSYRDQTIVDPFSSKHNVIVGRNGSGKSNFFYAIQFVLSDEFSHLRPEQRLALLHEGTGPRVISAFVEIIFDNSDNRLPIDKEEVSLRRVIGAKKDQYFLDKKMVTKNDVMNLLESAGFSRSNPYYIVKQGKINQMATAPDSQRLKLLREVAGTRVYDERKEESISLMKETEGKREKINELLKYIEERLHTLEEEKEELAQYQKWDKMRRALEYTIYNQELNETRAKLDELSAKRETSGEKSRQLRDAQQDARDKMEDIERQVRELKTKISAMKEEKEQLSAERQEQIKQRTKLELKAKDLQDELAGNSEQRKRLLKERQKLLEKIEEKQKELAETEPKFNSVKEKEERGIARLAQATQERTDLYAKQGRGSQFTSKEERDKWIKKELKSLDQAINDKKRQIAAIHKDLEDTEANKEKNLEQYNKLDQDLNEVKARVEELDRKYYEVKNKKDELQSERNYLWREENAEQQALAAKREDLEKKQQLLRAATGKAILNGIDSINKVLDHFRRKGINQHVQNGYHGIVMNNFECEPAFYTCVEVTAGNRLFYHIVDSDEVSTKILMEFNKMNLPGEVTFLPLNKLDVRDTAYPETNDAIPMISKLRYNPRFDKAFKHVFGKTLICRSMEVSTQLARAFTMDCITLEGDQVSHRGALTGGYYDTRKSRLELQKDVRKAEEELGELEAKLNENLRRNIERINNEIDQLMNQMQQIETQQRKFKASRDSILSEMKMLKEKRQQSEKTFMPKQRSLQSLEASLHAMESTRESLKAELGTDLLSQLSLEDQKRVDALNDEIRQLQQENRQLLNERIKLEGIITRVETYLNENLRKRLDQVEQELNELRETEGGTVLTATTSELEAINKRVKDTMARSEDLDNSIDKTEAGIKELQKSMERWKNMEKEHMDAINHDTKELEKMTNRQGMLLKKKEECMKKIRELGSLPQEAFEKYQTLSLKQLFRKLEQCNTELKKYSHVNKKALDQFVNFSEQKEKLIKRQEELDRGYKSIMELMNVLELRKYEAIQLTFKQVSKNFSEVFQKLVPGGKATLVMKKGDVEGSQSQDEGEGSGESERGSGSQSSVPSVDQFTGVGIRVSFTGKQGEMREMQQLSGGQKSLVALALIFAIQKCDPAPFYLFDEIDQALDAQHRKAVSDMIMELAVHAQFITTTFRPELLESADKFYGVKFRNKVSHIDVITAEMAKDFVEDDTTHG
B1: the binding result was “binds”.
